From article doi:10.64898/2025.12.19.695307 (bioRxiv, 2025)

Legend:
SARS-CoV-2 KP.3 RBD [1] = biological target: T1, SARS-CoV-2 KP.3 RBD (SARS-CoV-2 Omicron KP.3, strain, N354 glycosylation); test: cell-based or functional assay
SARS-CoV-2 KP.3 RBD [2] = biological target: T1, SARS-CoV-2 KP.3 RBD; test: BLI
SARS-CoV-2 JN.1 RBD = SARS-CoV-2 JN.1 RBD (SARS-CoV-2 Omicron JN.1, strain, N354 glycosylation); test: BLI
SARS-CoV-2 JD.1.1 RBD = SARS-CoV-2 JD.1.1 RBD (SARS-CoV-2 Omicron JD.1.1, strain); test: BLI
SARS-CoV-2 BA.2.86 RBD = SARS-CoV-2 BA.2.86 RBD (SARS-CoV-2 Omicron BA.2.86, strain, N354 glycosylation); test: BLI
[3] = biological target: SARS-CoV-2 Omicron BA.4/5 RBD (SARS-CoV-2 Omicron BA.4/5, L452R); test: BLI
[4] = biological target: SARS-CoV-2 Omicron EG.5.1 RBD (SARS-CoV-2 Omicron EG.5.1, F490S); test: BLI
[5] = biological target: SARS-CoV-2 Delta (B.1.617.2) RBD (SARS-CoV-2 Delta (B.1.617.2), L452R); test: BLI
SARS-CoV-2 HK.3 RBD = SARS-CoV-2 HK.3 RBD (SARS-CoV-2 Omicron HK.3, strain); test: BLI
[6] = biological target: SARS-CoV-2 Kappa (B.1.617.1) RBD (SARS-CoV-2 Kappa (B.1.617.1), L452R); test: BLI
[7] = biological target: SARS-CoV-2 Omicron BQ.1.1 RBD (SARS-CoV-2 Omicron BQ.1.1, R346T | L452R); test: BLI
[8] = biological target: SARS-CoV-2 Omicron XBB.1.5 RBD (SARS-CoV-2 Omicron XBB.1.5, F490S); test: BLI
[9] = biological target: SARS-CoV-2 Omicron BF.7 RBD (SARS-CoV-2 Omicron BF.7, L452R); test: BLI
[10] = biological target: SARS-CoV-2 Omicron BA.2.13 RBD (SARS-CoV-2 Omicron BA.2.13, L452M); test: BLI
[11] = biological target: SARS-CoV-2 Omicron BA.2.12.1 RBD (SARS-CoV-2 Omicron BA.2.12.1, L452Q); test: BLI
[12] = biological target: SARS-CoV-2 Omicron BA.1 RBD (SARS-CoV-2 Omicron BA.1, strain); test: BLI
[13] = biological target: SARS-CoV-2 Beta (B.1.351) RBD (SARS-CoV-2 Beta (B.1.351), strain); test: BLI
[14] = biological target: SARS-CoV-2 Omicron BA.2 RBD (SARS-CoV-2 Omicron BA.2, strain); test: BLI
[15] = biological target: SARS-CoV-2 Omicron XBB RBD (SARS-CoV-2 Omicron XBB, F490S); test: BLI
[16] = biological target: SARS-CoV-2 Gamma (P.1) RBD (SARS-CoV-2 Gamma (P.1), strain); test: BLI
[17] = biological target: SARS-CoV-2 Omicron EG.5 RBD (SARS-CoV-2 Omicron EG.5, R346T | F490S); test: BLI
[18] = biological target: SARS-CoV-2 Alpha (B.1.1.7) RBD (SARS-CoV-2 Alpha (B.1.1.7), strain); test: BLI
[19] = biological target: SARS-CoV-2 Omicron BA.3 RBD (SARS-CoV-2 Omicron BA.3, strain); test: BLI
[20] = biological target: SARS-CoV-2 Omicron BA.1.1 RBD (SARS-CoV-2 Omicron BA.1.1, strain); test: BLI
[21] = biological target: SARS-CoV-2 Omicron BA.2.75 RBD (SARS-CoV-2 Omicron BA.2.75, strain); test: BLI
SARS-CoV-2 WT S-trimer = SARS-CoV-2 WT S-trimer (SARS-CoV-2 ancestral (WT), UniProt P0DTC2, deletion of amino acids PRRA (681-684)); test: BLI

Row | Binder | Kd [3] [nM] | Kd [4] [nM] | Kd [5] [nM] | Kd [6] [nM] | Kd [7] [nM] | Kd [8] [nM] | Kd [9] [nM] | Kd [10] [nM] | Kd [11] [nM] | Kd [12] [nM] | Kd [13] [nM] | Kd [14] [nM] | Kd [15] [nM] | Kd [16] [nM] | Kd [17] [nM] | Kd [18] [nM] | Kd [19] [nM] | Kd [20] [nM] | Kd [21] [nM] | binding result (SARS-CoV-2 WT S-trimer) | other results
1 | ZL525 (antibody, V domains shown) V domain 1: QVQLVQSGAEVKKPGSSMKVSCQASGGTFSSHPISWIRQAPGQGLEWMGRIIPIAGMTDYGQKFQGRITITADTSTSTSYVELRGLRSQDTAFYYCAKDVGYSDYGSAYYFHTWGQGTLITVSS V domain 2: QSVLTQPPSVSGAPGQRVTISCTGSNSNIGAGYDVHWYQQLPGTAPKLLIYRNNKRPSGVPDRFSGSKSDTSASLAITGLQAEDEAHYYCQSFDSSLGGSLFGGGTKLAVL | < 0.71 | < 0.71 | < 0.71 | < 0.71 | < 0.71 | < 0.71 | – | – | – | – | – | – | – | – | – | – | – | – | – | – | IC50 of neutralisation of authentic KP.3 virus (focus reduction, Vero E6) (SARS-CoV-2 KP.3 RBD [1]): 0.107 µg/mL; Kd (SARS-CoV-2 KP.3 RBD [2]): < 1.11 nM; Kd (SARS-CoV-2 JN.1 RBD): < 1.11 nM; Kd (SARS-CoV-2 JD.1.1 RBD): < 1.11 nM; Kd (SARS-CoV-2 BA.2.86 RBD): < 1.11 nM; Kd (SARS-CoV-2 HK.3 RBD): < 1.11 nM
2 | R1-32 (antibody, V domains shown) VH: EVQLVESGAEVKKPGSSVKVSCKASGGTFSSYAISWVRQAPGQGLEWMGGIIPILGIANYAQKFQGRVTITADKSTSTAYMELSSLRSEDTAVYYCARENGYSGYGAAANFDLWGRGTLVTVSS VL: QSVLTQPPSVSGAPGQRVTISCTGSSSNIGAGYDVHWYQQLPGTAPKLLIYGNSNRPSGVPDRFSGSKSGTSASLAITGLQAEDEADYYCQSYDSSLSGSVFGGGTKLTVL | > 55 | – | > 55 | > 55 | > 55 | – | > 55 | > 55 | > 55 | – | – | – | – | – | – | – | – | – | – | – | –
3 | R1-32-AAM (R1-32-artificial-affinity-matured) (antibody, V domains shown) VH: EVQLVESGAEVKKPGSSVKVSCKASGGTFSSYFISWVRQAPGQGLEWMGGIIPILGIADYAEKFQGRVTITADKSTSTAYMELSSLRSEDTAVYYCARENGYSGYGAAYNFDLWGRGTLVTVSS VL: QSVLTQPPSVSGAPGQRVTISCTGSDSNIGAGYDVHWYQQLPGTAPKLLIYGNSNRPSGVPDRFSGSKSDTSASLAITGLQAEDEADYYCQSYDSSLSDSVFGGGTKLTVL | – | – | – | – | – | – | – | – | – | – | – | – | – | – | – | – | – | – | – | – | fold enhancement of affinity relative to R1-32 [9]: ~100 fold; fold enhancement of affinity relative to R1-32 [3]: ~100 fold; fold enhancement of affinity relative to R1-32 [5]: ~100 fold; fold enhancement of affinity relative to R1-32 [6]: ~100 fold; fold enhancement of affinity relative to R1-32 [7]: ~100 fold
4 | C807 (antibody, V domains shown) VH: QVQLVQSGAEAKKPGSSVKVSCKASGGTFKSYIINWVRQAPGQGLEWMGEIIPIFGTANYAQKFQGRVTSTADESTSTAYMELSSLKSEDTAVYYCARGRGYSGYGASYYFDYWGQGTLVTVSS VL: QSVLTQPPSVSGAPGQRVTISCTGSNSNIGAGYDVHWYQQLPGTAPKLLIYANSNRPSGVPDRFSGSKSGTSASLAITGLQAEDEADYYCQSYDSGLSGSVFGGGTKLTVL | < 2.1 | < 4.5 | < 2.1 | < 2.1 | < 2.1 | < 4.5 | < 2.1 | < 2.1 | < 2.1 | < 0.3 | < 0.3 | < 0.3 | < 4.5 | < 0.3 | < 4.5 | < 0.3 | < 0.3 | < 0.3 | < 0.3 | binds | –
5 | BD56-104 (antibody, V domains shown) VH: QVQLVQSGAEVKTPGSSVKVSCKASGGTFGSHSITWVRQAPGQGLEWMGRVIPILGIPDFAESFQGRVAITADRSTSTAHMELSRLRSEDTAVYYCARDVGYSGSGSSNYFDSWGQGTLVTVSS VL: QSVLTQPPSVSGAPGQRVTISCTGSNSNIGAGYDVHWYRQLPGTAPKLLIYVNNNRPSGVPDRFSGSRSGASASLAITGLQAEDEAEYYCQSYDSSLSGSIFGGGTKLTVL | < 2.1 | < 4.5 | < 2.1 | < 2.1 | < 2.1 | < 4.5 | < 2.1 | < 2.1 | < 2.1 | < 0.3 | < 0.3 | < 0.3 | < 4.5 | < 0.3 | < 4.5 | < 0.3 | < 0.3 | < 0.3 | < 0.3 | binds | –
6 | BD56-104+D59NH+E62QH (antibody, V domains shown) VH: QVQLVQSGAEVKTPGSSVKVSCKASGGTFGSHSITWVRQAPGQGLEWMGRVIPILGIPNFAQSFQGRVAITADRSTSTAHMELSRLRSEDTAVYYCARDVGYSGSGSSNYFDSWGQGTLVTVSS VL: QSVLTQPPSVSGAPGQRVTISCTGSNSNIGAGYDVHWYRQLPGTAPKLLIYVNNNRPSGVPDRFSGSRSGASASLAITGLQAEDEAEYYCQSYDSSLSGSIFGGGTKLTVL | – | – | – | – | – | – | – | – | – | – | – | – | – | – | – | – | – | – | – | – | fold reduction in binding relative to BD56-104 [3]: ~100 fold
7 | C092 (antibody, V domains shown) VH: QVQLVQSGAEVKKPGSSVKVSCKASGGSFTNHFISWVRQAPGQGLEWMGRIIPILGTANYAQNFQGRVMMTADKSTSTAYMELSSLRSEDTAVYYCARDSGYSGYGSTYYMDVWGKGTTVTVSS VL: QSVLTQPPSVSGAPGQRVTISCTGSNSNIGAGYDVHWYQQLPGAAPKLLIYGNNNRPSGVPDRFSGSKSDTSASLAITGLQVEDEADYYCQSYDSSLSDSVFGSGTKVTVL | < 2.1 | < 4.5 | < 2.1 | < 2.1 | < 2.1 | < 4.5 | < 2.1 | < 2.1 | < 2.1 | < 0.3 | < 0.3 | < 0.3 | < 4.5 | < 0.3 | < 4.5 | < 0.3 | < 0.3 | < 0.3 | < 0.3 | binds | –
8 | C092-germline HCDR1 (antibody, V domains shown) VH: QVQLVQSGAEVKKPGSSVKVSCKASGGTFSSYAISWVRQAPGQGLEWMGRIIPILGTANYAQNFQGRVMMTADKSTSTAYMELSSLRSEDTAVYYCARDSGYSGYGSTYYMDVWGKGTTVTVSS VL: QSVLTQPPSVSGAPGQRVTISCTGSNSNIGAGYDVHWYQQLPGAAPKLLIYGNNNRPSGVPDRFSGSKSDTSASLAITGLQVEDEADYYCQSYDSSLSDSVFGSGTKVTVL | – | – | – | – | – | – | – | – | – | – | – | – | – | – | – | – | – | – | – | – | fold reduction in binding relative to C092 [3]: ~10 fold; fold reduction in binding relative to C092 [5]: ~10 fold; fold reduction in binding relative to C092 [6]: ~10 fold
9 | BD56-597 (antibody, V domains shown) VH: QVQLVQSGAEVKKPGSSVKVSCKASGGTFSTYPISWVRQAPGQGVEWMGAIIPILGTTDYAQIFQGRVTITADKSTSTAYMELSSLRPEDTAVYYCARERGYSGYGAAYYFDSWGQGTLVTVSS VL: QSVLTQPPSVSGAPGQRVTISCTGSDSNIGAGYDVHWYQQLPGTAPKLLIYVNINRPSGVPDRFSGSKSATSASLAITGLQAEDEADYYCQSYDSSLSGVVFGGGTKLTVL | < 2.1 | < 4.5 | < 2.1 | < 2.1 | < 2.1 | < 4.5 | < 2.1 | < 2.1 | < 2.1 | < 0.3 | < 0.3 | < 0.3 | < 4.5 | < 0.3 | < 4.5 | < 0.3 | < 0.3 | < 0.3 | < 0.3 | binds | –
